Reference: the DeepSol protein solubility set

assay: soluble on expression in E. coli; label from the status in PepcDB or PDB records

**Q.** With “GSITQPTAINVIFPDPALANAIKIAAGKSNVTDTVTQADLDGITTLSAFGTGVTTIEGVQYLNNLIGLELKDNQITDLAPLKNLTKITELELSGNPLKNVSAIAGLQSIKTLDLTSTQITDVTPLAGLSNLQVLYLDLNQITNISPLAGLTNLQYLSIGNAQVSDLTPLANLSKLTTLKADDNKISDISPLASLPNLIEVHLKNNQISDVSPLANTSNLFIVTLTNQTITNQPVFYNNNLVVPNVVKGPSGAPIAPATISDNGTYASPNLTWNLTSFINNVSYTFNQSVTFKNTTVPFSGTVTQPLTE” as the sequence, how does the “soluble on expression in E. coli” value read?
**A.** soluble

**Q.** With “GSKGNIRVIARVRPVTKEDGEGPEATNAVTFDADDDSIIHLLHKGKPVSFELDKVFSPQASQQDVFQEVQALVTSCIDGFNVCIFAYGQTGAGKTYTMEGTAENPGINQRALQLLFSEVQEKASDWEYTITVSAAEIYNEVLRDLLGKEPQEKLEIRLCPDGSGQLYVPGLTEFQVQSVDDINKVFEFGHTNRTTEFTNLNEHSSRSHALLIVTVRGVDCSTGLRTTGKLNLVDLAGSERVGKSGAEGSRLREAQHINKSLSALGDVIAALRSRQGHVPFRNSKLTYLLQDSLSGDSKTLMVVQVSPVEKNTSETLYSLKFAERVRSVEL” as the sequence, how does the “soluble on expression in E. coli” value read?
**A.** soluble

**Q.** For “GSLILDGDLLKDKLKLPVIDNLFGKELLDKFQDDIKDKYGVDTKDLKILKTSEDKRFYYVSVDAGDGEKCKFKIRKDVDVPKMVGRKCRKDDDDDDGY”, which “soluble on expression in E. coli” value is on record?
**A.** soluble

**Q.** Which “soluble on expression in E. coli” value does the source give for “GSLRVKFSRSADAPAYQQGQNQLYNELNLGRREEYDVLDKRRGRD” here?
**A.** soluble

**Q.** With “GSMIRSTLSSWREYLTPITHKSTFLTTGQITPEEFVQAGDYLCHMFPTWKWNEESSDISYRDFLPKNKQFLIIRKVPCDKRAEQCVEVEGPDVIMKGFAEDGDEDDVLEYIGSETEHVQSTPAGGTKDSSIDDIDELIQDMEIKEEDENDDTEEFNAKGGLAKDMAQERYYDLYIAYSTSYRVPKMYIVGFNSNGSPLSPEQMFEDISADYRTKTATIEKLPFYKNSVLSVSIHPCKHANVMKILLDKVRVVRQRRRKELQEEQELDGVGDWEDLQDDIDDSLRVDQYLIVFLKFITSVTPSIQHDYTMEGW” as the sequence, how does the “soluble on expression in E. coli” value read?
**A.** soluble

**Q.** For “GSNEIKRGAVDLIKTGVNEKAMAGAVFSLFKKDGTEVKKELATDANGHIRVQGLEYGEYYFQETKAPKGYVIDPTKREFFVKNSGTINEDGTITSGTVVKMEVKNNEEPTIDKKINGKLEALPINPLTNYNYDIKTLIPEDIKEYKKYVVTDTLDNRLVIQGKPIVKIDGAEVNANVVEVAIEGQKVTATVKDFTKMDGKKEFHLQIKSQVKEGVPSGSEILNTAKIHFTNKNDVIGEKESKPVVVIPTTGIIELTKIDSANKNKMKGAEFVLKDNNGKIVVVAGKEVTGVSDENGVIKWSNIPYGDYQIFETKAPTYTKEDGTKTSYQLLKDPIDVKISENNQTVKLTIENNKS”, which “soluble on expression in E. coli” value is on record?
**A.** soluble

**Q.** With “GSPNSPATGEKKECWSWESYLEEQKAITAPVSLFQDSQAVTHNKNGFKLGMKLEGIDPQHPSMYFILTVAEVCGYRLRLHFDGYSECHDFWVNANSPDIHPAGWFEKTGHKLQPPKGYKEEEFSWSQYLRSTRAQAAPKHLFVSQSHSPPPLGFQVGMKLEAVDRMNPSLVCVASVTDVVDSRFLVHFDNWDDTYDYWCDPSSPYIHPVGWCQKQGKPLTPPQDYPDPDNFCWEKYLEETGASAVPTWAFKVRPPHSFLVNMKLEAVDRRNPALIRVASVEDVEDHRIKIHFDGWSHGYDFWIDADHPDIHPAGWCSKTGHPLQPPLGPREPSSAVDSSGRIVTD” as the sequence, how does the “soluble on expression in E. coli” value read?
**A.** soluble

**Q.** With “GSPQLRQVGQIIRVPARMAATLILEPAGRCCWDEPVRIAVRGLAPEQPVTLRASLRDEKGALFQAHARYRADTLGELDLERAPALGGSFAGLEPMGLLWALEPEKPLVRLVKRDVRTPLAVELEVLDGHDPDPGRLLCQTRHERYFLPPGVRREPVRVGRVRGTLFLPPEPGPFPGIVDMFGTGGGLLEYRASLLAGKGFAVMALAYYNYEDLPKTMETLHLEYFEEAMNYLLSHPEVKGPGVGLLGISKGGELCLSMASFLKGITAAVVINGSVANVGGTLRYKGETLPPVGVNRNRIKVTKDGYADIVDVLNSPLEGPDQKSFIPVERAESTFLFLVGQDDHNWKSEFYANEACKRLQAHGRRKPQIICYPETGHYIEPPYFPLCRASLHALVGSPIIWGGEPRAHAMAQVDAWKQLQTFFHKHLGGHEGTIPSKVLEHHHHHH” as the sequence, how does the “soluble on expression in E. coli” value read?
**A.** soluble

**Q.** With “GSQEVRRGDFVRNWQLVAAVPLFQKLGPAVLVEIVRALRARTVPAGAVICRIGEPGDRMFFVVEGSVSVATPNPVELGPGAFFGEMALISGEPRSATVSAATTVSLLSLHSADFQMLCSSSPEIAEIFRKTALERRGAAASA” as the sequence, how does the “soluble on expression in E. coli” value read?
**A.** soluble

**Q.** With “GSRTGSESSRPNTALLDPSSPEFSAVVSVGDWLQAIKMDRYKDNFTAAGYTTLEAVVHMSQDDLARIGITAITHQNKILSSVQAMRTQMQQMHG” as the sequence, how does the “soluble on expression in E. coli” value read?
**A.** soluble

**Q.** For “GSSGARCYVDGSEEIGSDFKIKCEPKEGSLPLQYEWQKLSDSQKMPTSWLAEMTSSVISVKNASSEYSGTYSCTVRNRVGSDQCLLRLNVVPPSNK”, which “soluble on expression in E. coli” value is on record?
**A.** soluble

**Q.** With “GSSSGGGSSSSGTSSAFSSYFNNKVGIPQEHVDHDDFDANQLLNKINE” as the sequence, how does the “soluble on expression in E. coli” value read?
**A.** soluble

**Q.** With “GSVVIVGRIILSGSGSITAYSQQTRGLLGCIITSLTGRDKNQVEGEVQVVSTATQSFLATCVNGVCWTVYHGAGSKTLAGPKGPITQMYTNVDQDLVGWQAPPGARSLTPCTCGSSDLYLVTRHADVIPVRRRGDSRGSLLSPRPVSYLKGSSGGPLLCPSGHAVGIFRAAVCTRGVAKAVDFVPVESMETTMRSPVFTDNSSPPAVPQSFQVAHLHAPTGSGKSTKVPAAYAAQGYKVLVLNPSVAATLGFGAYMSKAHGIDPNIRTGVRTITTGAPVTYSTYGKFLADGGCSGGAYDIIICDECHSTDSTTILGIGTVLDQAETAGARLVVLATATPPGSVTVPHPNIEEVALSNTGEIPFYGKAIPIEAIRGGRHLIFCHSKKKCDELAAKLSGLGINAVAYYRGLDVSVIPTIGDVVVVATDALMTGYTGDFDSVIDCNTCVTQTVDFSLDPTFTIETTTVPQDAVSRSQRRGRTGRGRRGIYRFVTPGERPSGMFDSSVLCECYDAGCAWYELTPAETSVRLRAYLNTPGLPVCQDHLEFWESVFTGLTHIDAHFLSQTKQAGDNFPYLVAYQATVCARAQAPPPSWDQMWKCLIRLKPTLHGPTPLLYRLGAVQNEVTLTHPITKYIMACMSADLEVVT” as the sequence, how does the “soluble on expression in E. coli” value read?
**A.** soluble

**Q.** Which “soluble on expression in E. coli” value does the source give for “GTEETAKVVPMAVITPAINQLTDQEKAEGWALLFDGKTTKGWRGAHKDAFPDHGWMVKDGELIVQKSDGSESTNGGDIVTEGEYSAFEFSVDFKITEGANSGIKYFVTEQEKQKGSAYGLEFQLLDDAKHPDAKLYTTFPGSRTLGSLYDLKKSENIHFNGVGEWNTAVVKVFPNNHVEHWLNGVKVLEYERGSKEFRDLVKGSKYADPSYNAGGAFGEAPKGHILLQDHGDEVAFRNIKVKELK” here?
**A.** soluble

**Q.** Which “soluble on expression in E. coli” value does the source give for “GTIVITGTITDTTCVIEDPSGPNHTKVVQLPKISKNALKANGDQAGRTPFIIKLKDCPSSLGNGVKAYFEPGPTTDYSTGDLRAYKMVYATNPQTQLSNITAATEAQGVQVRISNLNDSKITMGANEATQQAAGFDPEVQTGGTSRTVTMRYLASYVKKNGDVEASAITTYVGFSVVYP” here?
**A.** not soluble

**Q.** Which “soluble on expression in E. coli” value does the source give for “GTREQALGPALSFSTEGEFLKVRILDPVADSRRYNEEFKAQGLDIELVLIPASPSQVGQADGQLYSGSNTRQRIRFESVPAGCVEAATYPCVPEFTIPKDYRGTARFGINRAAAPGEQYAATGALNGRDEPLEGIQWLNRPVGEISAILRQRGFSITYRWPTGRQNPNATPPPTWYVIEPSFARQNNLVELEVSPRPMK” here?
**A.** not soluble

**Q.** Which “soluble on expression in E. coli” value does the source give for “GVLAPVVPGKALEFPQDFGAHNDFRIEWWYVTGWLETPTGKPLGFQITFFRTATEIDRDNPSHFAPDQLIIAHVALSDPAIGKLQHDQKIARAGFDLAYARTGNTDVKLDDWIFVRETDGRYRTRIEAEDFTLTFILTPSQPLMLQGENGFSRKGPGAPQASYYYSEPHLQVSGIINRQGEDIPVTGTAWLDREWSSEYLDPNAAGWDWISANLDDGSALMAFQIRGKDDSKIWAYAALRDASGHTRLFTPDQVSFHPIRTWRSARTQAVYPVATRVLTGETEWQITPLMDDQELDSRASAGAVYWEGAVTFTRDGQPAGRGYMELTGYVRPLSM” here?
**A.** soluble

**Q.** With “GYIVDMSKWNGSPDWDTAKGQLDLVIARVQDGSNYVDPVYKDYVAAMKARNIPFGSYAFCRFVSVEDAKVEARDFWNRGDKDSLFWVADVEVTTMSDMRAGTQAFIDELYRLGAKKVGLYVGHHKYEEFGAAQIKCDFTWIPRYGAKPAYPCDLWQYDEYGQVPGIGKCDLNRLNGDKSLDWFTGKGEE” as the sequence, how does the “soluble on expression in E. coli” value read?
**A.** soluble

**Q.** Which “soluble on expression in E. coli” value does the source give for “HDAIFILDKQGRLTWINQSYSALSGNTLEDIEGKDLPSILQLDKIKHANIIILLQSLETGTSISFELTNHHKDGTLFWIDVSITPILEPN” here?
**A.** not soluble

**Q.** For “HEGVHRKPSLLAHPGPLVKSEETVILQCWSDVRFQHFLLHREGKFKDTLHLIGEHHDGVSKANFSIGPMMQDLAGTYRCYGSVTHSPYQLSAPSDPLDIVITGLYEKPSLSAQPGPTVLAGESVTLSCSSRSSYDMYHLSREGEAHERRFSAGPKVNGTFQADFPLGPATHGGTYRCFGSFRDSPYEWSNSSDPLLVSVTGNPSNSWPSPTEPSSETGNPRHLHAAAEQKLISEEDLNLDLVPRGSSSHHHHHHSSG”, which “soluble on expression in E. coli” value is on record?
**A.** soluble

**Q.** With “HHHHHHMTTINPTNYTLLKKQAASLIEDEHHMIAILSNMSALLNDNLDQINWVGFYLLEQNELILGPFQGHPACVHIPIGKGVCGTAVSERRTQVVADVHQFKGHIACDANSKSEIVVPIFKDDKIIGVLDIDAPITDRFDDNDKEHLEAIVKIIEKQLA” as the sequence, how does the “soluble on expression in E. coli” value read?
**A.** soluble

**Q.** For “HITLNYLSKTLGMHQTINVILPEDKSYFDTNENAKPLKTMLLLHGLSSDTSSYMRYTSIERYANTHQLAVVMPNADHSFYSNMAYGHSYYDYILEVYDYVHQILPLSKKREDNFIAGHSMGGYGAIKFALTQSYRFSKAAMLSAPYDVSMIGQYQWYDFTPEAIVGNTQHVAGTSFDPYYLVEQAIDNGQALPQLYITCGTEDELYQGNIDFVNYLDEKGIPYQFKKAPGNHDYAFWDKAIEDVIDRF”, which “soluble on expression in E. coli” value is on record?
**A.** not soluble

**Q.** With “HMMQSWSAPAIPVVPGRGPALRLFDSADRQVRPVTPGPTATMYVCGITPYDATHLGHAATYLTFDLVHRLWLDAGHTVQYVQNVTDVDDPLFERAERDGIDWRTLGDRETQLFREDMAALRVLPPHDYVAATDAIAEVVEMVEKLLASGAAYIVEDAEYPDVYFRADATAQFGYESGYDRDTMLTLFAERGGDPDRPGKSDQLDALLWRAERPGEPSWPSPFGRGRPGWHVECSAIALTRIGTGLDIQGGGSDLIFPHHEYSAAHAESVTGERRFARHYVHTGMIGWDGHKMSKSRGNLVLVSQLRAQGVDPSAIRLGLFSGHYREDRFWSNEVLDEANARLARWRSATALPEAPDATDVIARVRQYLADDLDTPKALAALDGWCTDALSYGGHDTESPRLVATTVDALLGVDL” as the sequence, how does the “soluble on expression in E. coli” value read?
**A.** soluble

**Q.** Which “soluble on expression in E. coli” value does the source give for “HPHVENFTIIGSGFQAETQLEGMITVSHPQSIRVYSRNYDHAKDFASRMSKQFGVDIRPVDNAEAALSDADTVSSITNSTSPVILRKYLGDEYHVNLAGSNYMNRREAEYEVLHDADLVVTEHYDQSMVESAEISEYVKFGGKPVELREIAGRYGEFSGLRRTVFKSMGIGLEDIATAYRVLRNLGIA” here?
**A.** not soluble
